Assay results published in PMC4198130.
One block for each substance: values may come before it.

What was measured:
[1] = molecular target: GST fusion of the VGLUT1 C-terminus lacking the second PP domain (rat); experiment: pull-down; GST fusions of the VGLUT1 C-terminus on glutathione sepharose beads, incubated with detergent-solubilized (2% TX-100) rat brain extract, RT 60 min; bound proteins by immunoblot, band intensity normalised to VG1 (Figs. 3C,D and 4B)
[2] = molecular target: GST fusion of the VGLUT1 C-terminus, ΔWW/PAXA (rat); experiment: as above
[3] = molecular target: GST fusion of the VGLUT1 C-terminus, ΔSH3/1,2,3 (rat); experiment: as above
[4] = molecular target: GST fusion of the VGLUT1 C-terminus, ΔWW/PAXY (rat); experiment: as above
[5] = molecular target: GST fusion of the VGLUT1 C-terminus lacking the first PP domain (rat); experiment: as above
[6] = molecular target: GST fusion of the VGLUT1 C-terminus lacking both PP domains (rat); experiment: as above
[7] = molecular target: GST fusion of the SH3 domain of sorting nexin 9 (Panomics) (human) (UniProt Q9Y5X1); experiment: pull-down; GST fusions of SH3 or WW domains on glutathione sepharose beads, incubated with detergent-solubilized (2% TX-100) rat brain extract, RT 60 min; bound VGLUT1 by immunoblot, band intensity normalised to lysate
Sequence of GST fusion of the SH3 domain of sorting nexin 9 (Panomics) (human) (Q9Y5X1 1-62): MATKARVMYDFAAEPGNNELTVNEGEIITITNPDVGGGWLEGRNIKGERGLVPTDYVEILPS

[8] = molecular target: GST fusion of the VGLUT1 C-terminus, SS/DD (rat) (UniProt Q62634); experiment: pull-down; 400 µg GST fusions of the VGLUT1 C-terminus on glutathione sepharose beads, rat brain extract in 100 mM Tris-HCl pH 7.5, 150 mM NaCl, 1 mM EGTA, 1% TX-100, 4°C 2 h; immunoblot (Fig. 6)
[9] = molecular target: GST fusion of the VGLUT1 C-terminus, SS/AA (rat) (UniProt Q62634); experiment: as above
[10] = molecular target: GST fusion of the VGLUT1 C-terminus lacking the first PP domain (rat); experiment: pull-down; GST fusions of the VGLUT1 C-terminus on glutathione sepharose beads, incubated with extracts of COS7 cells transfected with myc-Lyn (2% TX-100); detected with antibody to myc, band intensity normalised to VG1
[11] = molecular target: GST fusion of the VGLUT1 C-terminus lacking the second PP domain (rat); experiment: as above
[12] = molecular target: GST fusion of the VGLUT1 C-terminus lacking both PP domains (rat); experiment: as above

Sequence of Nedd4 from rat brain extract (Q62940 whole entry): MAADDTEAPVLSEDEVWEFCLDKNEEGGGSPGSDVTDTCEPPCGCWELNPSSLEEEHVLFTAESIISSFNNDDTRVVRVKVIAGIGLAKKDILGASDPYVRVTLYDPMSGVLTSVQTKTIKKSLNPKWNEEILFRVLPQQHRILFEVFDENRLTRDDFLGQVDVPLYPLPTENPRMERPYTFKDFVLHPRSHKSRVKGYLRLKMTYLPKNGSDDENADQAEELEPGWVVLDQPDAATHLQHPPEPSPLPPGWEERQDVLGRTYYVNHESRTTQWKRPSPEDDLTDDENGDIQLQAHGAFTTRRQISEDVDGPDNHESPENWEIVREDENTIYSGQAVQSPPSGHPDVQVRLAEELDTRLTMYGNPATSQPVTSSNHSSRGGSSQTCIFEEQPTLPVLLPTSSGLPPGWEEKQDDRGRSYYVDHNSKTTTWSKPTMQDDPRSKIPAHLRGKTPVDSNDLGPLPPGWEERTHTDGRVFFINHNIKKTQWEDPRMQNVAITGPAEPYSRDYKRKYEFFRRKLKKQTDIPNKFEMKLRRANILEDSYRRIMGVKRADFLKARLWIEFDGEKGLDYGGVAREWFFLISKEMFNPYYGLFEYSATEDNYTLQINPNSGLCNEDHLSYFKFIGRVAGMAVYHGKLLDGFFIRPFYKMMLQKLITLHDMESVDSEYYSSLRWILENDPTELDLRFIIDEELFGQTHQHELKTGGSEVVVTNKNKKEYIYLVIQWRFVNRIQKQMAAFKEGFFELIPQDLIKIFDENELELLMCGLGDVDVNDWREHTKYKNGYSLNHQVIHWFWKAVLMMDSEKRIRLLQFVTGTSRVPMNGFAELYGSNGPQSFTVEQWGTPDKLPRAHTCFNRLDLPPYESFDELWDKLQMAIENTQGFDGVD
Sequence of myc-tagged Lyn (P25911 whole entry): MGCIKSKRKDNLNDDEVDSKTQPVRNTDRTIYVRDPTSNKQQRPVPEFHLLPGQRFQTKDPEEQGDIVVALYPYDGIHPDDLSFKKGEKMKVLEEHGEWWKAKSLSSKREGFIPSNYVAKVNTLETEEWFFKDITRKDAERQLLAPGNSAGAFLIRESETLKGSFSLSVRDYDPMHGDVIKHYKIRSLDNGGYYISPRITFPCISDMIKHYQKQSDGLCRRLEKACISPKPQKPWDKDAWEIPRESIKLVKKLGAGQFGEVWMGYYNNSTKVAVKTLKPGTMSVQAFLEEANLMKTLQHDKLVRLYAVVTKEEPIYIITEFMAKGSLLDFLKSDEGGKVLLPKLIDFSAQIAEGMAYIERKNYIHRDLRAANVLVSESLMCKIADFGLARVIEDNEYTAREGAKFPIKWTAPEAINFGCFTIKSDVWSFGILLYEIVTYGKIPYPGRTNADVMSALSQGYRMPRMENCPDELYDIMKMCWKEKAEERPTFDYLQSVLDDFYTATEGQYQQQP
Sequence of clathrin adaptor protein AP-2 from rat brain extract (P18484 whole entry, looked up): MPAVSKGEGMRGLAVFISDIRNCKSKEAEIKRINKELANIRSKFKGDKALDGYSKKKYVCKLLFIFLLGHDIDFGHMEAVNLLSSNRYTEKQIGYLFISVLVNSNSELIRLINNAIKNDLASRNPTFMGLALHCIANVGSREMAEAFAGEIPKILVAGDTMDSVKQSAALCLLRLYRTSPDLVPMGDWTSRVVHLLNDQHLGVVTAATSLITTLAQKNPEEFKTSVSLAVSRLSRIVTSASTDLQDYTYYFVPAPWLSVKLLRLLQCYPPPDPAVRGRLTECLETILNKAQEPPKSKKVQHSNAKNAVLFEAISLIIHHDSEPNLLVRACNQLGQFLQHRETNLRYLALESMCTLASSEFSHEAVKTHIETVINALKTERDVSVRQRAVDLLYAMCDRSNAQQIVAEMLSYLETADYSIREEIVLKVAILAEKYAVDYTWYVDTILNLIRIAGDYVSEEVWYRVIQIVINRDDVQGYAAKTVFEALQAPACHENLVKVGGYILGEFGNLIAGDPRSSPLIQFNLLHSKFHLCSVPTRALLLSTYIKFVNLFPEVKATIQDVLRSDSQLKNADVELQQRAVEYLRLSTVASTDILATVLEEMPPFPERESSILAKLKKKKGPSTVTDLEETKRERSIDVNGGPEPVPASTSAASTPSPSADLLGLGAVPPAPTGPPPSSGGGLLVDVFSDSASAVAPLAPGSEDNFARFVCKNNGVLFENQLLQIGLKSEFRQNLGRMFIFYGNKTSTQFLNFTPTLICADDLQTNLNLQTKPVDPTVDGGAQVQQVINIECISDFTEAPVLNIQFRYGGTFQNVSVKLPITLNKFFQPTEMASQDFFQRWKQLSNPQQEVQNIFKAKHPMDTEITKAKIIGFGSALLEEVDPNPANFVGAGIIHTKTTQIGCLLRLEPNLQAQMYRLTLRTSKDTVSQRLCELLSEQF

- band intensity normalised to VG1 [1]: 0.822 a.u.
- band intensity normalised to VG1 [2]: 0.0669 a.u.
- band intensity normalised to VG1 [3]: 0.99 a.u.
- band intensity normalised to VG1 [4]: 0.119 a.u.
Substance: Atrophin Interacting Protein AIP4/Itch from rat brain extract (enzyme)

- band intensity normalised to VG1 [5]: 1.11 a.u.
Substance: Nck from rat brain extract (natural protein)

- band intensity normalised to VG1 [5]: 0.0459 a.u.
- band intensity normalised to VG1 [1]: 0.664 a.u.
- band intensity normalised to VG1 [6]: 0.0821 a.u.
Substance: Nedd4 from rat brain extract (from UniProt Q62940 1-887) (enzyme)

- band intensity normalised to lysate [7]: 0.111 a.u.
Substance: VGLUT1 from rat brain extract (from UniProt Q62634 1-560) (natural protein)

- band intensity (a.u.) [8]: 1.76 a.u.
- band intensity (a.u.) [9]: 0.674 a.u.
Substance: clathrin adaptor protein AP-2 from rat brain extract (from UniProt P18484 1-938) (complex)

- band intensity normalised to VG1 [10]: 1.12 a.u.
- band intensity normalised to VG1 [11]: 0.0282 a.u.
- band intensity normalised to VG1 [12]: 0.0368 a.u.
Substance: myc-tagged Lyn (from UniProt P25911 1-512) (enzyme)

- band intensity normalised to VG1 [5]: 2.24 a.u.
- band intensity normalised to VG1 [1]: 0.062 a.u.
- band intensity normalised to VG1 [6]: 0.225 a.u.
Substance: ponsin/c-Cbl interacting protein CAP from rat brain extract (from UniProt P84109 1-35) (natural protein)
